In paper PMC6143433 (Biochemistry, 2018):

Target: the molecule itself
Test: SEC

B1: MftE from M. ulcerans (enzyme, UniProt A0PM51 1-250, looked up)
chain: MNSSYHRRVPVLGELGTSTSSQLPSTWPSILIPLGSTEQHGPHLPLDTDTRIATAVGRAVATRMHGRLTQCQPGWLLAPPIAYGASGEHQSFAGTISIGAEALRVLLLEYGRSAACWADRLVFVNGHGGNVEALRGAVRQLRAEGRDAGWSACGSAGGDAHAGHTETSVLLHISPEVVLTDRLSAGNAAPLAELLPSLRRGGVAAVSPIGVLGDPTTATAVEGRRIFAEMVDDCVSRIARWTPGPDGMLT
- stoichiometry N: 8
